Experiments:
[1] = biological target: T1, TylM1 (Streptomyces fradiae, UniProt P95748); test: X-ray crystal structure, […] Å; format: binding; details: complex with SAH; active site
T1 sequence (P95748 2-255): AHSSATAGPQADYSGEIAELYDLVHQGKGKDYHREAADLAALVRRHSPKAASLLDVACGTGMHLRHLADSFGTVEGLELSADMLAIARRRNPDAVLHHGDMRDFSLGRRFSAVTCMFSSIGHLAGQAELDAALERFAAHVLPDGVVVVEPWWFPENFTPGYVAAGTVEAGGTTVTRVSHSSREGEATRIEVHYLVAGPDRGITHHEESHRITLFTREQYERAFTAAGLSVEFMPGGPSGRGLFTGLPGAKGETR

[2] = biological target: T1, TylM1; test: X-ray crystal structure, […] Å; format: binding; details: complex with SAH; active site; remark: listed apart in the source
[3] = substrate: Cc1cn([C@H]2C[C@H](O)[C@@H](COP(=O)(O)OP(=O)(O)O[C@H]3O[C@H](C)[C@@H](O)[C@H](N)[C@H]3O)O2)c(=O)[nH]c1=O; test: purified protein; details: methyl donor SAM
[4] = substrate: Cc1cn([C@H]2C[C@H](O)[C@@H](COP(=O)(O)OP(=O)(O)O[C@H]3O[C@H](C)[C@H](O)[C@H](N)[C@H]3O)O2)c(=O)[nH]c1=O; test: purified protein; details: methyl donor SAM

## Cc1cn([C@H]2C[C@H](O)[C@@H](COP(=O)(O)OP(=O)(O)O[C@H]3O[C@H](C)[C@@H](O)[C@H](N(C)C)[C@H]3O)O2)c(=O)[nH]c1=O [dTDP-mycaminose]
[1]
  X-ray crystal structure, 1.6 Å: The first structure determined for this investigation was that of TylM1 in complex with SAH

## CN[C@H]1[C@@H](O)[C@@H](C)O[C@H](OP(=O)(O)OP(=O)(O)OC[C@H]2O[C@@H](n3cc(C)c(=O)[nH]c3=O)C[C@@H]2O)[C@@H]1O [dTDP-3-N-methylamino-3,6-dideoxygalactose]
[2]
  X-ray crystal structure, 2.2 Å: enzyme in complex with SAH and dTDP-3-N-methylamino-3,6-dideoxygalactose

B1: TylM1 (Streptomyces fradiae) (protein)
chain: AHSSATAGPQADYSGEIAELYDLVHQGKGKDYHREAADLAALVRRHSPKAASLLDVACGTGMHLRHLADSFGTVEGLELSADMLAIARRRNPDAVLHHGDMRDFSLGRRFSAVTCMFSSIGHLAGQAELDAALERFAAHVLPDGVVVVEPWWFPENFTPGYVAAGTVEAGGTTVTRVSHSSREGEATRIEVHYLVAGPDRGITHHEESHRITLFTREQYERAFTAAGLSVEFMPGGPSGRGLFTGLPGAKGETR
[3]
  Km: 79 ± 15 µM
  kcat: 0.75 ± 0.09 s⁻¹
[4]
  Km: 1540 ± 80 µM
  kcat: 0.61 ± 0.07 s⁻¹
